B1: AtAcnX (Agrobacterium fabrum str. C58) (protein)
chain: MSSAVSTTAAPEARSILAGAAEGKVIATTEALSFWGGVDPATGKVIDVHHPLHGICLTGGVLFMPTSRGSCTGSGVLLDLILTGRAPSALVFCEAEDVLTLGALVAAEMFDKALPVIRLDAETFSRFSRAAHVSIDQNTIKADGVSLAIAPPATAHLDLNDDDRAMLVGRDGIAVRQAMRIIVAMAAQQGASALVDVTQGHIDGCIYASPANLTFAEKMADMGGKVRAPSTMNAISVDKANWRAQGVPEDFGDPAARLADAYVRMGCKPTFTCSPYLLDSAPSAGESIAWAESNAVIFANTVLGARTAKHPDFLDLCIAMTGRAPLSGVYIEENRRPQRIVDVALPAGIDDAFWPLVGYLAGKAAPDCIPLLRGLGAAKPSRDDLKALCAAFGTTSASPMLHIEGATPEAGLAPLETAETVTISLQDMAAAWSLLNDGPEEVQLVAIGSPHASLEECRALAAVFAGRKRRADVAVIVTAGQQVIDAAGKDGTLQSLKDSGVQVLPDLCWCSISEPVFPTKTRALMTNSGKYAHYGPGLSGRAVRFGSLADCVESALTGRAVSRLPVWLS
notes: E. coli BL21(DE3); monomer, ~59 kDa; [2Fe-2S] cluster

Tests used:
TkAcnX = target: T1, TkAcnX (Thermococcus kodakarensis, UniProt Q5JGJ6+Q5JGJ7); experiment: X-ray co-crystal structure, […] Å; type: binding; conditions: 40 mM MVA5P in co-crystallization; inactive form with [3Fe-4S] cluster; active site between subunits
T1 construct: gene TK1249; both subunits co-expressed in E. coli (pETDuet-1); His6 tag on small subunit cut off with 3C protease; heterodimer ~24 + ~42 kDa
T1 sequence (Q5JGJ7 whole entry): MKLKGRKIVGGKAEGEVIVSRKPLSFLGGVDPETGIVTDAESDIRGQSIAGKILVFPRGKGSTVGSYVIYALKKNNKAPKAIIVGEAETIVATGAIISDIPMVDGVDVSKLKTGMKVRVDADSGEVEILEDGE
T1 sequence (Q5JGJ6 whole entry): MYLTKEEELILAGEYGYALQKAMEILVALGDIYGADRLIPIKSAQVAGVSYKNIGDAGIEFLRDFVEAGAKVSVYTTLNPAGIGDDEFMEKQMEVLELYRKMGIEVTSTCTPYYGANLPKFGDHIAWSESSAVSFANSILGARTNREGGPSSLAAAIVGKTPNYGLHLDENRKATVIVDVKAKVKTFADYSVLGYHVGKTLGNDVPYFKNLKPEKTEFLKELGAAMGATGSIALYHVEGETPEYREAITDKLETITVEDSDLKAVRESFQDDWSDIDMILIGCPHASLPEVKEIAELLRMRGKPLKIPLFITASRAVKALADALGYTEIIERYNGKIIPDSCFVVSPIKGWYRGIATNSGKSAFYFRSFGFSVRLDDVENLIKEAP

[1] = substrate: O=C(O)[C@H]1NCC[C@H]1O; experiment: coupled spectrophotometric assay with NADH-dependent Pyr2C reductase; type: biochemical, Agrobacterium fabrum; conditions: free enzyme; coupling with NADH

Molecule | X-ray co-crystal structure, 1.9 Å (TkAcnX) | Km [1] | kcat [1]
C[C@@](O)(CCOP(=O)(O)O)CC(=O)O [MVA5P] | co-crystallized the wild-type enzyme of TkAcnX (inactive form) with MVA5P |  | 
B1 |  | 1.16 ± 0.11 mM | 2000 ± 166 min⁻¹
